# In patent US11649460B2, “DNA aptamers, method for inhibiting human galectin-1 and method of treating a mammal in need thereof” (priority 2020, dated 2023):
# B1: AGCTGACACAGCAGGTTGGTGCCAACAAGAAAAGAAACCGTTACAGAAGACACTACAGAATAAGTGAAAAGCCGAGTCGAGCAATCTCGAAAT (nucleic acid)
# DNA: AGCTGACACAGCAGGTTGGTGCCAACAAGAAAAGAAACCGTTACAGAAGACACTACAGAATAAGTGAAAAGCCGAGTCGAGCAATCTCGAAAT
# modifications: chemistry not given here
# How the values were obtained:
# galectins = conditions: in vitro; cited from earlier work
# [1] = system: SK-BR-3 human breast adenocarcinoma; assay: SRB cell proliferation (cytotoxicity) assay, SK-BR-3
# Excerpt: (§1) The XLSTAT software was used to determine the IC50, TGI and LC50 values using the four-parameter logistic curve equation.
# OVCAR-3 cell line = assay: Synergism test with cisplatin, OVCAR-3; conditions: cisplatin 3 μM
# Description: For the analysis of cell proliferation, the non-clonogenic method of sulforodamine B (SRB) was used, a protein dye that binds to the basic amino acid residues of cell proteins that were viable at the time of the fixation process. Therefore, the greater the amount of SRB bound per compartment, the less the antiproliferative activity of the item under study.
# [2] = system: MCF-7 human breast adenocarcinoma cell line; assay: SRB cell proliferation (cytotoxicity) assay, MCF-7
# Excerpt: as §1
# [3] = system: HCT 116 human colorectal carcinoma; assay: SRB cell proliferation (cytotoxicity) assay, HCT 116
# Excerpt: as §1
# [4] = system: OVCAR-3 human ovarian adenocarcinoma cell line; assay: SRB cell proliferation (cytotoxicity) assay, OVCAR-3
# Excerpt: as §1
# [5] = system: A-375 human malignant melanoma; assay: SRB cell proliferation (cytotoxicity) assay, A-375
# Excerpt: as §1
# [6] = target: T1, hGal1-induced hemagglutination of red blood cells (Homo sapiens, UniProt P09382); assay: Hemagglutination inhibition assay, native hGal1; type: cell-based; conditions: native Gal1 5 μM
# T1 construct: 42; made in house; host or cells: E. coli strain M-15
# Description: Hemagglutination Inhibition Assay
# Hemagglutination assay was adopted to assess the capacity of SEQ ID NO.: 4 in inhibiting the lectin cross-linking aggregation of red blood cells (RBC), as previously described. Briefly, using a 96-well microplates appropriate amounts of 5 μM hGal1 were blended with 50 μL of aptamer in an increasing concentrations manner (0-40 μM) in PBS 1× buffer (pH 7.4). Following, 50 μL of 3% purified type B+ RBC in PBS. After 2 h of room temperature incubation, the plate was photographed and the hemagglutination area was estimated by area calculator Sketchandcalc™ and the results were expressed as relative agglutination.
# [7] = system: seven cell lines of solid human tumors; assay: SRB antiproliferative assay, panel of tumor lines; type: cell-based; conditions: read-out: 50% growth inhibitory concentrations (IC50); all tumor cell lines assessed
# Excerpt: as §1
# [8] = system: NHF human foreskin skin fibroblasts; assay: in vitro
# Excerpt: as §1
# [9] = target: T2, native human galectin-1 (hGal1) (Homo sapiens, UniProt P09382); assay: Thermofluor thermal shift assay (TSA), native galectin-1; type: binding; conditions: 5 μM protein
# T2 construct: 42; made in house; host or cells: E. coli strain M-15
# Description: In an attempt to screen among the selected aptamers that better interact with hGal1, differential scanning fluorimetry (Termofluor) was used to characterize their binding to its target. Among all the selected aptamers, SEQ ID NO.: 4 seemed to have a more intense effect on hGal1 thermoshift and so was chosen for further analysis. The selected aptamer had its interaction evaluated with native and alkylated galectin-1. […] The respective thermal displacements were evaluated as a function of an increasing concentration of SEQ ID NO.: 4 (FIG. 1).
# Thermofluor experiments were performed on an Mx3005 RT-PCR (Agilent Technologies) using the SYPRO® Orange dye (492/610 nm) (Invitrogen) as fluorescent probe. The purified (native and alkylated) protein samples were incubated for 30 min with increasing concentration of the molecules of interest, centrifuged, and submitted to the thermal denaturation assay, totalizing four distinct experiments. In a 96-well plate (Agilent Technologies) 20 μl of the reaction containing 5 μM of each protein in buffer PBS 1× and 5× SYPRO® Orange were heated from 25° C. to 95° C. at a rate of 1° C./min. The experimental result was processed as in the protocol previously described and the melting temperature was obtained using GraphPad Prism software (www.graphpad.com).
# [10] = system: DU-145 human prostate carcinoma cell line; assay: SRB cell proliferation (cytotoxicity) assay, DU-145
# Excerpt: as §1
# [11] = system: HT-29 human colorectal adenocarcinoma; assay: SRB cell proliferation (cytotoxicity) assay, HT-29
# Excerpt: as §1
# T1 sequence (P09382 2-135): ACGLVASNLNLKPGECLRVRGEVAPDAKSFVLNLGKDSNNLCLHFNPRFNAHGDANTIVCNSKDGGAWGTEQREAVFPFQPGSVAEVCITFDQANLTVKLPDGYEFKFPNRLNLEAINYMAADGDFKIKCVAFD
# T2 sequence (P09382 2-135): as above
molecule,measurement,setting,value
1-methyl derivative of LacNac,Kd,galectins,70 µM
B1,Relative cell viability (%) of test items,[1]; 0.781 µM,98.0%
same,Relative cell viability (%) of test items,[1]; 1.562 µM,99.1%
same,Relative cell viability (%) of test items,[1]; 3.125 µM,113.9%
same,Relative cell viability (%) of test items,[1]; 6.25 µM,95.4%
same,Relative cell viability (%) of test items,[1]; 12.5 µM,90.0%
same,Relative cell viability (%) of test items,[1]; 25 µM,50.2%
same,Relative cell viability (%) of test items,[1]; 50 µM,−8.6%
same,Relative cell viability (%) of test items,[1]; 100 µM,−66.5%
same,TGI: Concentration for total inhibition of cell growth,[1]; SK-BR-3,45.137 µM
same,IC50,"[1]; read-out: IC50: Concentration to inhibit 50% of cell growth, SK-BR-3",26 µM
same,CC50,"[1]; read-out: LC50: Concentration for 50% cell death, SK-BR-3",78.6 µM
same,effect on the profile of antiproliferative activity in association with cisplatin,OVCAR-3 cell line,substantially improved
same,Relative viability (%) of test items,[2]; 0.781 µM,86.4%
same,Relative viability (%) of test items,[2]; 1.562 µM,85.8%
same,Relative viability (%) of test items,[2]; 3.125 µM,83.0%
same,Relative viability (%) of test items,[2]; 6.25 µM,74.2%
same,Relative viability (%) of test items,[2]; 12.5 µM,63.0%
same,Relative viability (%) of test items,[2]; 25 µM,47.1%
same,Relative viability (%) of test items,[2]; 50 µM,25.6%
same,Relative viability (%) of test items,[2]; 100 µM,−29.0%
same,TGI: Concentration for total inhibition of cell growth,[2]; MCF-7,70.609 µM
same,IC50,"[2]; read-out: IC50: Concentration to inhibit 50% of cell growth, MCF-7",24.3 µM
same,CC50,"[2]; read-out: LC50: Concentration for 50% cell death, MCF-7",> 100 µM
same,Relative cell viability (%) of test items,[3]; 0.781 µM,95.9%
same,Relative cell viability (%) of test items,[3]; 1.562 µM,97.5%
same,Relative cell viability (%) of test items,[3]; 3.125 µM,99.9%
same,Relative cell viability (%) of test items,[3]; 6.25 µM,96.1%
same,Relative cell viability (%) of test items,[3]; 12.5 µM,69.4%
same,Relative cell viability (%) of test items,[3]; 25 µM,27.9%
same,Relative cell viability (%) of test items,[3]; 50 µM,6.3%
same,Relative cell viability (%) of test items,[3]; 100 µM,−47.3%
same,TGI: Concentration for total inhibition of cell growth,[3]; HCT 116,47.447 µM
same,IC50,"[3]; read-out: IC50: Concentration to inhibit 50% of cell growth, HCT 116",20.2 µM
same,CC50,"[3]; read-out: LC50: Concentration for 50% cell death, HCT 116",> 100 µM
same,Relative viability (%) of test items,[4]; 0.781 µM,79.9%
same,Relative viability (%) of test items,[4]; 1.562 µM,90.2%
same,Relative viability (%) of test items,[4]; 3.125 µM,77.9%
same,Relative viability (%) of test items,[4]; 6.25 µM,59.2%
same,Relative viability (%) of test items,[4]; 12.5 µM,34.7%
same,Relative viability (%) of test items,[4]; 25 µM,16.9%
same,Relative viability (%) of test items,[4]; 50 µM,−3.7%
same,Relative viability (%) of test items,[4]; 100 µM,−51.1%
same,TGI: Concentration for total inhibition of cell growth,[4]; OVCAR-3,39.740 µM
same,IC50,"[4]; read-out: IC50: Concentration to inhibit 50% of cell growth, OVCAR-3",9.46 µM
same,CC50,"[4]; read-out: LC50: Concentration for 50% cell death, OVCAR-3",> 100 µM
same,Relative cell viability (%) of test items,[5]; 0.781 µM,92.6%
same,Relative cell viability (%) of test items,[5]; 1.562 µM,84.5%
same,Relative cell viability (%) of test items,[5]; 3.125 µM,87.7%
same,Relative cell viability (%) of test items,[5]; 6.25 µM,74.2%
same,Relative cell viability (%) of test items,[5]; 12.5 µM,81.1%
same,Relative cell viability (%) of test items,[5]; 25 µM,65.8%
same,Relative cell viability (%) of test items,[5]; 50 µM,51.6%
same,Relative cell viability (%) of test items,[5]; 100 µM,−72.1%
same,TGI: Concentration for total inhibition of cell growth,[5]; A-375,74.279 µM
same,IC50,"[5]; read-out: IC50: Concentration to inhibit 50% of cell growth, A-375",47.9 µM
same,CC50,"[5]; read-out: LC50: Concentration for 50% cell death, A-375",93.1 µM
same,inhibitory effect on galectin-induced hemagglutination,[6],better effect
same,IC50,[7],< 25 µM
same,Relative viability (%) of test items,[8]; 0.781 µM,103.3%
same,Relative viability (%) of test items,[8]; 1.562 µM,101.8%
same,Relative viability (%) of test items,[8]; 3.125 µM,93.5%
same,Relative viability (%) of test items,[8]; 6.25 µM,96.1%
same,Relative viability (%) of test items,[8]; 12.5 µM,101.4%
same,Relative viability (%) of test items,[8]; 25 µM,66.8%
same,Relative viability (%) of test items,[8]; 50 µM,24.3%
same,Relative viability (%) of test items,[8]; 100 µM,−32.9%
same,TGI: Concentration for total inhibition of cell growth,[8]; NHF,64.820 µM
same,IC50,"[8]; read-out: IC50: Concentration to inhibit 50% of cell growth, NHF",35.7 µM
same,CC50,"[8]; read-out: LC50: Concentration for 50% cell death, NHF",> 100 µM
same,variation of denaturation temperature (Tm) of native hGal1,[9],greater variation
same,Relative viability (%) of test items,[10]; 0.781 µM,94.8%
same,Relative viability (%) of test items,[10]; 1.562 µM,106.3%
same,Relative viability (%) of test items,[10]; 3.125 µM,104.4%
same,Relative viability (%) of test items,[10]; 6.25 µM,105.3%
same,Relative viability (%) of test items,[10]; 12.5 µM,92.2%
same,Relative viability (%) of test items,[10]; 25 µM,72.4%
same,Relative viability (%) of test items,[10]; 50 µM,32.5%
same,Relative viability (%) of test items,[10]; 100 µM,−39.4%
same,TGI: Concentration for total inhibition of cell growth,[10]; DU-145,69.568 µM
same,IC50,"[10]; read-out: IC50: Concentration to inhibit 50% of cell growth, DU-145",39.3 µM
same,CC50,"[10]; read-out: LC50: Concentration for 50% cell death, DU-145",> 100 µM
same,Relative cell viability (%) of test items,[11]; 0.781 µM,90.8%
same,Relative cell viability (%) of test items,[11]; 1.562 µM,93.7%
same,Relative cell viability (%) of test items,[11]; 3.125 µM,103.0%
same,Relative cell viability (%) of test items,[11]; 6.25 µM,94.2%
same,Relative cell viability (%) of test items,[11]; 12.5 µM,78.3%
same,Relative cell viability (%) of test items,[11]; 25 µM,32.7%
same,Relative cell viability (%) of test items,[11]; 50 µM,15.7%
same,Relative cell viability (%) of test items,[11]; 100 µM,−71.9%
same,TGI: Concentration for total inhibition of cell growth,[11]; HT-29,53.711 µM
same,IC50,"[11]; read-out: IC50: Concentration to inhibit 50% of cell growth, HT-29",25.1 µM
same,CC50,"[11]; read-out: LC50: Concentration for 50% cell death, HT-29",85.8 µM
